The text below walks through data of PMC11638594 (Molecular Therapy. Methods & Clinical Development, 2024).

In this test the target is AAV8 capsid (adeno-associated virus serotype 8) (adeno-associated virus 8, UniProt Q8JQF8). Nature of the test: cryo-EM structure.

B1: AAVX nanobody (CaptureSelect Biotin Anti-AAVX Conjugate; ligand of the POROS CaptureSelect AAVX affinity resin) (VHH)
VHH: QVQIQESGGGIVQAGGSLRLSCAASGRTHGMYAMGWFRQAPGKEREFVAVQDITASNTHYSSAVKGRFTLSRDNAKNTAYLQMNNLKPEDTAVYYCAAGPTLMSGSYNSARDYDYWGQGTQVTVSS
For B1, the stoichiometry N (commonly a count of units in the complex or per binding partner) stood at 2 nanobodies per 5-fold.
